Biological target: T1, MOR202 (anti-CD38 antibody)
T1 construct: also called MOR03087
Assay: serum immunofixation electrophoresis (IFE) after pre-incubation of MOR202 (1200 µg/mL, saline or serum) with MOR09292-hAlb; anti-IgG or anti-lambda staining
Protocol: MOR202 at a constant concentration of 1200 μg/mL in saline (Lane 2-3) or serum (Lane 4-13) was pre-incubated with or without its idiotypic antibody MOR09292-hAlb at different ratios and the prepared samples were analyzed via IFE using anti-IgG staining (Lane 2-8) or anti-lambda staining (Lane 9-13). (Lane 2=MOR202; Lane 3=MOR202+MOR09292-hAlb at 2400 μg/mL; Lane 4=MOR202; Lane 5=MOR202+MOR09292-hAlb at 1200 μg/mL; Lane 6=MOR202+MOR09292-hAlb at 1800 μg/mL; Lane 7=MOR202+MOR09292-hAlb at 2400 μg/mL; Lane 8=MOR202+MOR09292-hAlb at 3600 μg/mL; Lane 9=MOR202; Lane 10=MOR202+MOR09292-hAlb at 1200 μg/mL; Lane 11=MOR202+MOR09292-hAlb at 1800 μg/mL; Lane 12=MOR202+MOR09292-hAlb at 2400 μg/mL; Lane 13=MOR202+MOR09292-hAlb at 3600 μg/mL; Lane 1=human serum from a healthy donor stained for total protein to evaluate general background signaling).
In order to differentiate between MOR202 related assay signals in IFE vs. endogenous M-protein spikes a method was tested pre-incubating a MOR202 containing sample with an MOR202 specific anti-idiotypic antibody (MOR09292). […] For evaluating if the migration distance is large enough to be detected samples containing MOR202 in saline were prepared and pre-incubated with or without MOR09292. […] Afterwards, the samples were analyzed and IFE gels were stained with anti-IgG or anti-lambda antisera. […]

T1 sequence (VH, as listed by the source, chain 1 of 2): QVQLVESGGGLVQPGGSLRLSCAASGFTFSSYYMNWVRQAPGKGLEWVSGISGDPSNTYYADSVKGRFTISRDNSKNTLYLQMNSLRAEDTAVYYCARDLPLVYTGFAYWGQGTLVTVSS
T1 sequence (VL, as listed by the source, chain 2 of 2): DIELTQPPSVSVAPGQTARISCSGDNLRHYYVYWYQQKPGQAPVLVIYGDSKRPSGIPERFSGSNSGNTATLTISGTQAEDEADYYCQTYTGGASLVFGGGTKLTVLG

binding result: binds
B1: MOR09292-human albumin fusion (MOR09292-Fab fragment genetically fused to human albumin) (Fab)
heavy: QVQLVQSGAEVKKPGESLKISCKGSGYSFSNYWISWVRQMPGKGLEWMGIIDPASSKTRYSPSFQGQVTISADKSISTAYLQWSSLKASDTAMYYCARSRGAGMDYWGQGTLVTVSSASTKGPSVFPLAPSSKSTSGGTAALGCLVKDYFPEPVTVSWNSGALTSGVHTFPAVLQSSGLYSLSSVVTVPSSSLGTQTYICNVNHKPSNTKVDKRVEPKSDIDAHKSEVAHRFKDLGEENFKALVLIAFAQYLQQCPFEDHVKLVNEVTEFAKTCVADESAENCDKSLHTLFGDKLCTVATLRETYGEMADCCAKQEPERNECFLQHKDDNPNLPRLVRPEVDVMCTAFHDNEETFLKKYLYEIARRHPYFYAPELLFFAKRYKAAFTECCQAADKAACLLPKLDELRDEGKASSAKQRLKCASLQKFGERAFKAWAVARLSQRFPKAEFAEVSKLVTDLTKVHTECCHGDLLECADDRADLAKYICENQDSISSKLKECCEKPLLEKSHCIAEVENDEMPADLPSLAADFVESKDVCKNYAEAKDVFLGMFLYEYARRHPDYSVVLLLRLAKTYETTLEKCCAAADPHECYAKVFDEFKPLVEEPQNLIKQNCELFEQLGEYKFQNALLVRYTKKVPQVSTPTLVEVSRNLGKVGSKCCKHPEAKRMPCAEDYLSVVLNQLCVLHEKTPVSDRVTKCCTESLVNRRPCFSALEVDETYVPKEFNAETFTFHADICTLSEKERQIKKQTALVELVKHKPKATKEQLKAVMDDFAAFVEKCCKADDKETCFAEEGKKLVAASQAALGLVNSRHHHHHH
light: DIVLTQPPSVSGAPGQRVTISCTGSSSNIGAGYDVHWYQQLPGTAPKLLIYADNNRPSGVPDRFSGSKSGTSASLAITGLQSEDEADYYCGSYDESSNSMVFGGGTKLTVLGQPKAAPSVTLFPPSSEELQANKATLVCLISDFYPGAVTVAWKADSSPVKAGVETTTPSKQSNNKYAASSYLSLTPEQWKSHRSYSCQVTHEGSTVEKTVAPTECS
notes: Anti-idiotypic Fab to MOR202, fused to human albumin; also called MOR09292-hAlb; MOR09292-huAlb

From patent publication US20190077875A1 (MorphoSys, published 2019)
